Experimental data as given in publication doi:10.1101/2024.08.08.607204, “Mechanism of ASF1 Inhibition by CDAN1” (bioRxiv, 2024).
Values joined by “and” are separate entries in the source; they are usually repeats but may differ in a detail not shown here. Equal values may be shown once.

B1: FLAG-tagged CDIN1 (F-CDIN1) (natural protein, UniProt Q9Y2V0 1-281, looked up)
chain: MILTKAQYDEIAQCLVSVPPTRQSLRKLKQRFPSQSQATLLSIFSQEYQKHIKRTHAKHHTSEAIESYYQRYLNGVVKNGAAPVLLDLANEVDYAPSLMARLILERFLQEHEETPPSKSIINSMLRDPSQIPDGVLANQVYQCIVNDCCYGPLVDCIKHAIGHEHEVLLRDLLLEKNLSFLDEDQLRAKGYDKTPDFILQVPVAVEGHIIHWIESKASFGDECSHHAYLHDQFWSYWNRFGPGLVIYWYGFIQELDCNRERGILLKACFPTNIVTLCHSIA
notes: CDIN1 (C15orf41) cDNA synthesized by IDT, in pCDNA3.1; source: Expi293, transiently transfected, in lysate and purified in complexes (anti-FLAG, Strep-Tactin); not shown: 3xFLAG, N-terminal, kept
B2: Strep-tagged CDAN1 (ST-CDAN1), wildtype (natural protein, human)
chain: MAAVLESLLREEVSVAAVVRWIARSTQGSEDNAGEAAALSSLRALRKEFVPFLLNFLREQSSRVLPQGPPTPAKTPGASAALPGRPGGPPRGSRGARSQLFPPTEAQSTAAEAPLARRGGRRRGPGPARERGGRGLEEGVSGESLPGAGGRRLRGSGSPSRPSLTLSDPPNLSNLEEFPPVGSVPPGPTGTKPSRRINPTPVSEERSLSKPKTCFTSPPISCVPSSQPSALDTSPWGLGLPPGCRSLQEEREMLRKERSKQLQQSPTPTCPTPELGSPLPSRTGSLTDEPADPARVSSRQRLELVALVYSSCIAENLVPNLFLELFFVFQLLTARRMVTAKDSDPELSPAVLDSLESPLFQSIHDCVFFAVQVLECHFQVLSNLDKGTLKLLAENERLLCFSPALQGRLRAAYEGSVAKVSLVMPPSTQAVSFQPETDNRANFSSDRAFHTFKKQRDVFYEVLREWEDHHEEPGWDFEKGLGSRIRAMMGQLSAACSHSHFVRLFQKQLLQMCQSPGGAGGTVLGEAPDVLSMLGADKLGRLWRLQERLMAPQSSGGPCPPPTFPGCQGFFRDFILSASSFQFNQHLMDSLSLKIQELNGLALPQHEPNDEDGESDVDWQGERKQFAVVLLSLRLLAKFLGFVAFLPYRGPEPPPTGELQDSILALRSQVPPVLDVRTLLQRGLQARRAVLTVPWLVEFLSFADHVVPLLEYYRDIFTLLLRLHRSLVLSQESEGKMCFLNKLLLLAVLGWLFQIPTVPEDLFFLEEGPSYAFEVDTVAPEHGLDNAPVVDQQLLYTCCPYIGELRKLLASWVSGSSGRSGGFMRKITPTTTTSLGAQPSQTSQGLQAQLAQAFFHNQPPSLRRTVEFVAERIGSNCVKHIKATLVADLVRQAESLLQEQLVTQGEEGGDPAQLLEILCSQLCPHGAQALALGREFCQRKSPGAVRALLPEETPAAVLSSAENIAVGLATEKACAWLSANITALIRREVKAAVSRTLRAQGPEPAARGERRGCSRACEHHAPLPSHLISEIKDVLSLAVGPRDPDEGVSPEHLEQLLGQLGQTLRCRQFLCPPAEQHLAKCSVELASLLVADQIPILGPPAQYRLERGQARRLLHMLLSLWKEDFQGPVPLQLLLSPRNVGLLADTRPREWDLLLFLLRELVEKGLMGRMEIEACLGSLHQAQWPGDFAEELATLSNLFLAEPHLPEPQLRACELVQPNRGTVLAQS
notes: Codanin-1 (CDAN1) cDNA from Horizon Discovery/Dharmacon; a point mutation of the clone (S421F) was corrected; in pCDNA3.1; Dimer by SEC-MALS and cryo-EM; Same plasmid used in Expi293 (purifications) and in Flp-In 293 T-REx (pulldowns); kept as one molecule; also called WT CDAN1; Strep-CDAN1; source: Expi293, transiently transfected, in lysate and purified in complexes (anti-FLAG, Strep-Tactin); …
B3: CDAN1 MA3 domain (ST-CDAN1C, residues 1008-1227) (domain or fragment, human, UniProt Q8IWY9 1008-1227, looked up)
chain: GERRGCSRACEHHAPLPSHLISEIKDVLSLAVGPRDPDEGVSPEHLEQLLGQLGQTLRCRQFLCPPAEQHLAKCSVELASLLVADQIPILGPPAQYRLERGQARRLLHMLLSLWKEDFQGPVPLQLLLSPRNVGLLADTRPREWDLLLFLLRELVEKGLMGRMEIEACLGSLHQAQWPGDFAEELATLSNLFLAEPHLPEPQLRACELVQPNRGTVLAQS
notes: Codanin-1 (CDAN1), MA3 domain, residues 1008-1227; also called Strep-CDAN1C; CDAN1 C-term; source: Expi293, transiently transfected, purified in complex with F-CDIN1 (anti-FLAG, Strep-Tactin); not shown: 3xStrep-II-TEV, N-terminal, kept

Legend:
[1] = target: B2; experiment: SEC-MALS; 200 μg of each purified complex at 5 μM on an SRT SEC-300 column with DAWN HELEOS II detector; dn/dc 0.185; conditions: both partners purified
[2] = target: the molecule itself; experiment: as above
[3] = target: B1; experiment: cryo-EM structure; purified CDAN1 C-term:CDIN1 (C:C) complex crosslinked with BS3, 0.78 mg/mL; single-particle cryo-EM, ~6 Å reconstruction; conditions: both partners purified

In the case of B1, the “stoichiometry N” value [1] is reported as 2 copies of CDIN1 per two copies of CDAN1.

B2 was tested, and the “stoichiometry N” value [2] was 2 copies of CDAN1 in the C:A complex and 2 copies of CDAN1 in the C:C:A complex.

B3: binds [3].
